For assay [1], the target named is mouse monoclonal anti-β-gal antibody (Promega, Madison, Wis.). The assay can be described thus: single round of affinity selection on wells coated with anti-β-gal antibodies.
The target is the same in assay [2]. In words: affinity selection on wells coated with anti-β-gal antibody; input λβ-gal/λV′sac 10^3/10^6.
Assay [3] has the same target. In words: affinity selection on wells coated with anti-β-gal antibody, collagenase elution, plaques counted on X-gal; input λβ-gal/λV′sac 10^3/10^8.
For assay [4] the target is unchanged. In words: affinity selection on wells coated with anti-β-gal antibody; input λβ-gal/λV′sac 10^4/10^10.
Assay [5] shares this target. The assay can be described thus: affinity selection on wells coated with anti-β-gal antibody; input λβ-gal/λV′sac 10^4/10^9.
For assay [6] the target is unchanged. The assay can be described thus: affinity selection on wells coated with anti-β-gal antibody; input λβ-gal/λV′sac 10^3/10^9.
Assay [7] shares this target. In words: affinity selection on wells coated with anti-β-gal antibody; input λβ-gal/λV′sac 10^4/10^7.
Assay [8] shares this target. In words: affinity selection on wells coated with anti-β-gal antibody; input λβ-gal/λV′sac 10^4/10^8.
For assay [9] the target is unchanged. The assay can be described thus: affinity selection on wells coated with anti-β-gal antibody, collagenase elution, plaques counted on X-gal; input λβ-gal/λV′sac 10^3/10^7.
The target is the same in assay [10]. The assay can be described thus: affinity selection on wells coated with anti-β-gal antibody; input λβ-gal/λV′sac 10^3/10^10.
Assay [11] shares this target. The assay can be described thus: affinity selection on wells coated with anti-β-gal antibody, collagenase elution, plaques counted on X-gal; input λβ-gal/λV′sac 10^4/10^7.
Assay [12] has the same target. The assay can be described thus: affinity selection on wells coated with anti-β-gal antibody, collagenase elution, plaques counted on X-gal; input λβ-gal/λV′sac 10^4/10^8.
Assay [13] shares this target. The assay can be described thus: affinity selection on wells coated with anti-β-gal antibody; input λβ-gal/λV′sac 10^3/10^7.
The target is the same in assay [14]. The assay can be described thus: affinity selection on wells coated with anti-β-gal antibody, collagenase elution, plaques counted on X-gal; input λβ-gal/λV′sac 10^3/10^6.
Assay [15] shares this target. In words: affinity selection on wells coated with anti-β-gal antibody, collagenase elution, plaques counted on X-gal; input λβ-gal/λV′sac 10^3/10^10.
Assay [16] has the same target. In words: affinity selection on wells coated with anti-β-gal antibody; input λβ-gal/λV′sac 10^3/10^8.
Assay [17] shares this target. The assay can be described thus: affinity selection on wells coated with anti-β-gal antibody, collagenase elution, plaques counted on X-gal; input λβ-gal/λV′sac 10^4/10^10.
For assay [18] the target is unchanged. The assay can be described thus: affinity selection on wells coated with anti-β-gal antibody, collagenase elution, plaques counted on X-gal; input λβ-gal/λV′sac 10^3/10^9.
Assay [19] shares this target. The assay can be described thus: affinity selection on wells coated with anti-β-gal antibody, collagenase elution, plaques counted on X-gal; input λβ-gal/λV′sac 10^4/10^9.
The target of assay [20] is mucin of bovine submaxillary glands (Sigma, St. Louis, Mo.) (bovine). In words: affinity selection on wells coated with mucin, 1 mM CaCl2, collagenase elution.

For “λβ-gal phage particles grown on MC8 (su+), displaying the β-gal multimer (pV′-β-gal fusion protein assembled with β-gal monomers) on the phage tail (from UniProt P00722 10-1024)”, the average efficiency of recovery (% of the input phage) in assay [1] worked out at 1. For the same molecule, the Enrichment (fold over λV′sac) is above 8000 in assay [2]; 770000 in assay [4]; 300000 in [5]; 280000 in assay [6]; 16000 in assay [7]; 170000 in assay [8]. The Enrichment (fold over λV′sac) amounted to 530000 in assay [10], 2000 in [13] and 80000 in assay [16]. Also, the Output Phage in assay [3] is 8 plaques; in assay [9] it was 10 plaques; in [11], 96 plaques; in assay [12] it was 168 plaques; in [14] it was 8 plaques; in [15] it was 5 plaques. In addition, the results for the Output Phage in assay [17], in assay [18] and in assay [19] were 129 plaques, 99 plaques and 108 plaques, respectively.

B1: λBPA phage particles grown on MC8 (su+), displaying the BPA (Bauhinia purpurea lectin) multimer (pV′-BPA fusion protein assembled with BPA monomers) (protein, part only; not given: amber residue and junction residues, part only)
chain, part: MPVPNPTMPVKGAGTTLWVYKGSGDPYANPLSDVDWSRLAKVKDLTPGELTAESYDDSYLDDEDADWTATGQGQKSAGDTSFTLAWMPGEQGQQALLAWFNEGDTRAYKIRFPNGTVDVFRGWVSSIGKAVTAKEVITRTVKVTNVGRPSMAEDRSTVTAATGMTVTPASTSVVKGSWPVRPTPTPTTPTPTPTPTPTPTPTVGPIVTQETATSSTLTGFTFPNFWSNTQENGTEIIFLGNATYTPGALRLTRIGEDGIPLKSNAGQASYSRPVFLWDSTGHVASFYTSFSFIVRSIDVPHITADGFAFFLAPVDSSVKDYGGCLGLFRYKTATDPSKNQVVAVEFDTWPNTEWSDLRYPHIGINVNSTVSVATTRWDNDDAYVTKSTAHITYDATSKIITVLLTYDNGRHYQLSHVVDLPKILPERVRIGFSGGTGFNETQYILSWSFTSTLNSTKISALTQKLRSSASYSSM
chain: TSSTLTGFTFPNFWSNTQENGTEIIFLGNATYTPGALRLTRIGEDGIPLKSNAGQASYSRPVFLWDSTGHVASFYTSFSFIVRSIDVPHITADGFAFFLAPVDSSVKDYGGCLGLFRYKTATDPSKNQVVAVEFDTWPNTEWSDLRYPHIGINVNSTVSVATTRWDNDDAYVTKSTAHITYDATSKIITVLLTYDNGRHYQLSHVVDLPKILPERVRIGFSGGTGFNETQYILSWSFTSTLNSTKISALTQKLRSSASYSSM
For B1, the recovery of input phage (% of input phage) in assay [20] was 0.01.

B2: λV′sac phage particles grown on MC8 (su+), reference phage (protein)
chain: MPVPNPTMPVKGAGTTLWVYKGSGDPYANPLSDVDWSRLAKVKDLTPGELTAESYDDSYLDDEDADWTATGQGQKSAGDTSFTLAWMPGEQGQQALLAWFNEGDTRAYKIRFPNGTVDVFRGWVSSIGKAVTAKEVITRTVKVTNVGRPSMAEDRSTVTAATGMTVTPASTSVVKG
As to B2, the Output Phage in assay [3] was 11 plaques; in [9] it was 5 plaques; in assay [11], 6 plaques; in [12], 25 plaques; in [14], 0 plaques; in assay [15], 106 plaques. In addition, the Output Phage in assay [17] is 162 plaques; in assay [18], 32 plaques; in assay [19], 39 plaques.

(Values after patent US20060030020A1.)
